From the supplement of paper PMC9732359
± gives the uncertainty stated by the source.

Experiment: protein stability index of a GFP-peptide fusion (yeast GPS) (PSI 1-4); higher = more stable; sorted into four equal gates, so the index is relative within each strain
Outline: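 The protein stability index combines read frequencies across sorting gates, each weighted by its gate number and then summed. To obtain those frequencies, a pooled yeast library of GFP fusions to tiled 17-residue yeast protein peptides, on a plasmid also expressing Cherry, was grown to mid-log phase in leucine-free medium. The cells were sorted into four equal gates by GFP/Cherry ratio before plasmid amplification by PCR and Illumina sequencing.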

Row | Sequence | protein stability index (doa10∆) | protein stability index (pdr5∆) | protein stability index (san1∆) | protein stability index (ubr1∆)
1 | CYQFAEYLFKPQLISDK [ARP7] | 2.38 ± 0.06 | 2.14 ± 0.049 | 2.2 ± 0.064 | 2.11 ± 0.04
2 | IFNDILAHVDQIVDIRN [YJL039C/NUP192] | 2.83 ± 0.1 | 2.64 ± 0.18 | 2.97 ± 0.082 | 2.9 ± 0.076
3 | SQTPKVEKTEKPKKPKG [RPS30A] | 3.1 ± 0.07 | 3.12 ± 0.07 | 2.93 ± 0.051 | 2.94 ± 0.047
4 | SFIINFISNLPNVSDKY [NUT1] | 2.28 ± 0.08 | 1.91 ± 0.07 | 2.06 ± 0.15 | 1.95 ± 0.057
5 | DFAQKEINGDDDEDEDD [PRE10] | 3.09 ± 0.11 | 3.19 ± 0.071 | 3.22 ± 0.082 | 3.28 ± 0.063
6 | ITAVHVKIRATGGTRTK [RPS14A] | 1.58 ± 0.05 | 1.63 ± 0.041 | 1.82 ± 0.09 | 1.67 ± 0.042
7 | TQTEELKFMAASEVATH [PRP8] | 2.38 ± 0.084 | 2.48 ± 0.08 | 2.35 ± 0.081 | 2.66 ± 0.066
8 | KASSTPAGGLFGQASGA [YGL172W/NUP49] | – | – | 2.19 ± 0.26 | –
9 | WLNGKMDSKGKITIGIQ [RGR1] | 3.69 ± 0.12 | 3.47 ± 0.21 | – | –
10 | IKEELTKLIISGQLNFE [PCI8] | 3.29 ± 0.15 | 3.19 ± 0.15 | 2.54 ± 0.26 | 2.99 ± 0.088
11 | SLPEGLLKSLWDYVKKN [TAF14] | 3.01 ± 0.17 | 2.02 ± 0.079 | – | 3.13 ± 0.093
12 | TNNTIRYNAKRRNWRRT [RPL39] | – | 3.02 ± 0.22 | – | 3.58 ± 0.14
13 | ALQDKEITSVLSNLHES [SNF12] | 2.93 ± 0.083 | 3.43 ± 0.13 | 2.94 ± 0.064 | 3.13 ± 0.056
14 | KRNKLLTIFDSVDESAR [YJL039C/NUP192] | 2.26 ± 0.07 | 2.37 ± 0.072 | 2.32 ± 0.061 | 2.36 ± 0.066
15 | VYRFVTENAIEEKVIER [ISW2] | 2.42 ± 0.11 | 2.46 ± 0.14 | 2.5 ± 0.25 | 2.7 ± 0.063
16 | VEQYKFRETTHSKRELD [BRR2] | 3.27 ± 0.072 | 2.96 ± 0.059 | 2.58 ± 0.054 | 2.73 ± 0.054
17 | ITKVPALEFLNTTLQDN [REC8] | 2.77 ± 0.08 | 2.7 ± 0.15 | 2.98 ± 0.12 | 2.71 ± 0.084
18 | LPNKSTISKTVSSTIPR [FAS2] | 2.01 ± 0.072 | 2.63 ± 0.077 | 2.92 ± 0.11 | 2.94 ± 0.084
19 | GELKRGNESVKPQFENH [MED11] | 3.34 ± 0.18 | 3.21 ± 0.089 | 2.98 ± 0.11 | 2.97 ± 0.16
20 | LKIFQEQSLEVFIFPTS [SRB8] | 2.12 ± 0.083 | 1.96 ± 0.054 | 2.29 ± 0.056 | 2.28 ± 0.041
21 | ETEIKDLTQLLEKERSI [SMC4] | 3.34 ± 0.079 | 3.15 ± 0.048 | 3.24 ± 0.051 | 3.25 ± 0.039
22 | LALKLELLDFLTSNLSN [YJL039C/NUP192] | 2.55 ± 0.053 | 2.26 ± 0.043 | 2.45 ± 0.049 | 2.65 ± 0.043
23 | PKNVPTSKWLNSITSGG [YDL116W/NUP84] | 2.35 ± 0.072 | 2.56 ± 0.068 | 2.23 ± 0.14 | 2.6 ± 0.064
24 | YNSFPHSNLEKISNSKL [SIR4] | 2.77 ± 0.066 | 2.65 ± 0.076 | 2.61 ± 0.043 | 2.76 ± 0.048
25 | SLIEDFVDGIANSKKST [SRB7] | 3.29 ± 0.14 | 3.35 ± 0.092 | 3.03 ± 0.062 | 3.04 ± 0.062
26 | NSQTVSGTPITQTESKK [SNF2] | 2.67 ± 0.05 | 2.27 ± 0.05 | 2.7 ± 0.053 | 2.39 ± 0.039
